The text below walks through data of article doi:10.1101/2022.11.11.516191.

What is called stoichiometry N is a count of units in the complex or per binding partner.

Assay in all cases: SEC
Conditions in all cases: remark: other sources report otherwise

The target in assay [1] is T1, 14-3-3 β 130nY (human), P31946.
T1 chain: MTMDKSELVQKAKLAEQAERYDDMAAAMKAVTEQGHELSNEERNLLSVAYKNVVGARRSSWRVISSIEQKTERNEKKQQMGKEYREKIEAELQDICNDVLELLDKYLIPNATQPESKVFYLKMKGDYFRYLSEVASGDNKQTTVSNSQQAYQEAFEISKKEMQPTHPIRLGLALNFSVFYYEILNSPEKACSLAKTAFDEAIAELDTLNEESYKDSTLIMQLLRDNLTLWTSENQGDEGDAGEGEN

Assay [2] has as its target T2, 14-3-3 β wild-type (human), P31946.
T2 chain: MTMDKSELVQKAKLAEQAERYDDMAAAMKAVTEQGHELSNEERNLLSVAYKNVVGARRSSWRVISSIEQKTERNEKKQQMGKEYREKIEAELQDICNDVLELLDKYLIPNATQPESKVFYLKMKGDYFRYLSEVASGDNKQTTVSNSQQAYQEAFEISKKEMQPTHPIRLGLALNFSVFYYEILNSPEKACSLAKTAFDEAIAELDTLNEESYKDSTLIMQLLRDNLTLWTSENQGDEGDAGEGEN

Assay [3] addresses T3, 14-3-3 β 213nY (human), P31946.
T3 chain: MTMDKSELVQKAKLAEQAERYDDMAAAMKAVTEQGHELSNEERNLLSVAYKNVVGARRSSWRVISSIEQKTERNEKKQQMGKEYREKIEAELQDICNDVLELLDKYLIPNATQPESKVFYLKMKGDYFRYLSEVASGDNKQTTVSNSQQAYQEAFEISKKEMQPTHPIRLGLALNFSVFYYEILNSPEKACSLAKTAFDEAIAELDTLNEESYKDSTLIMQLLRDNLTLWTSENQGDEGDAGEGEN

B1: 14-3-3 β 130nY, P31946 1-246 (natural protein)
chain: MTMDKSELVQKAKLAEQAERYDDMAAAMKAVTEQGHELSNEERNLLSVAYKNVVGARRSSWRVISSIEQKTERNEKKQQMGKEYREKIEAELQDICNDVLELLDKYLIPNATQPESKVFYLKMKGDYFRYLSEVASGDNKQTTVSNSQQAYQEAFEISKKEMQPTHPIRLGLALNFSVFYYEILNSPEKACSLAKTAFDEAIAELDTLNEESYKDSTLIMQLLRDNLTLWTSENQGDEGDAGEGEN
modifications: here or on the partner: 3-nitro-tyrosine at 130 (β-isoform numbering); 3-nitro-tyrosine at 130 (β-isoform numbering)
Consider B1, for which the stoichiometry N in assay [1] amounted to 2.

B2: 14-3-3 β wild-type, P31946 1-246 (natural protein)
chain: MTMDKSELVQKAKLAEQAERYDDMAAAMKAVTEQGHELSNEERNLLSVAYKNVVGARRSSWRVISSIEQKTERNEKKQQMGKEYREKIEAELQDICNDVLELLDKYLIPNATQPESKVFYLKMKGDYFRYLSEVASGDNKQTTVSNSQQAYQEAFEISKKEMQPTHPIRLGLALNFSVFYYEILNSPEKACSLAKTAFDEAIAELDTLNEESYKDSTLIMQLLRDNLTLWTSENQGDEGDAGEGEN
Molecule B2 yielded a stoichiometry N in assay [2] of 2.

B3: 14-3-3 β 213nY, P31946 1-246 (natural protein)
chain: MTMDKSELVQKAKLAEQAERYDDMAAAMKAVTEQGHELSNEERNLLSVAYKNVVGARRSSWRVISSIEQKTERNEKKQQMGKEYREKIEAELQDICNDVLELLDKYLIPNATQPESKVFYLKMKGDYFRYLSEVASGDNKQTTVSNSQQAYQEAFEISKKEMQPTHPIRLGLALNFSVFYYEILNSPEKACSLAKTAFDEAIAELDTLNEESYKDSTLIMQLLRDNLTLWTSENQGDEGDAGEGEN
modifications: here or on the partner: 3-nitro-tyrosine at 213 (β-isoform numbering); 3-nitro-tyrosine at 213 (β-isoform numbering)
The molecule B3 registered a stoichiometry N in assay [3] of 2.
